Reference: US20190065668A1 (published 2019)
Square brackets hold non-standard residues; d marks the D form. * marks the point of attachment. Sta = CC(C)C[C@H](N)[C@@H](O)CC(=O)O; NHPhenethyl = c1ccc(CCN*)cc1; Cbz = O=C(OCc1ccccc1)*

What was measured:
[1] = target: recombinant P. falciparum plasmepsin V (residues N80-R528) (Plasmodium falciparum, UniProt Q8I6Z5 80-528); experiment: cell-based or functional assay
[2] = target: plasmepsin V in P. falciparum parasites (endogenous enzyme in trophozoites expressing PfEMP3-GFP) (Plasmodium falciparum, UniProt Q8I6Z5 1-590); experiment: cell-based or functional assay
plasmepsin V in P. falciparum parasites (endogenous enzyme in trophozoites expressing PfEMP3-GFP), sequence (Q8I6Z5 whole entry): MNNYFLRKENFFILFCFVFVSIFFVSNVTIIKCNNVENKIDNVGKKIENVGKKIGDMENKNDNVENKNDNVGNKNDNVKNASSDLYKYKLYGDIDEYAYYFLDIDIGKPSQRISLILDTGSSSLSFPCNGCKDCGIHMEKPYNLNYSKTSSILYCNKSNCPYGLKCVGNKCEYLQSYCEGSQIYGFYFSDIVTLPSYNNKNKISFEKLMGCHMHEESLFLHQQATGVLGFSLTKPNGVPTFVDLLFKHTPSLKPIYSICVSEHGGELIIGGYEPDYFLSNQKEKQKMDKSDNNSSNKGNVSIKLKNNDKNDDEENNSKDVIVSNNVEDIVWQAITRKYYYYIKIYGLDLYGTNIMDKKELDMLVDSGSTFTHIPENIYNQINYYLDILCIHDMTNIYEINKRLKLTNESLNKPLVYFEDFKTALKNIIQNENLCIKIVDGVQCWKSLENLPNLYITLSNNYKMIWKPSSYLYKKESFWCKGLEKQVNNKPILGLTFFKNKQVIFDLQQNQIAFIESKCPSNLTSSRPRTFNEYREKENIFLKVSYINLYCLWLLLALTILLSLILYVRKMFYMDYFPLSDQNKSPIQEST

recombinant P. falciparum plasmepsin V (residues N80-R528), sequence (Q8I6Z5 80-528): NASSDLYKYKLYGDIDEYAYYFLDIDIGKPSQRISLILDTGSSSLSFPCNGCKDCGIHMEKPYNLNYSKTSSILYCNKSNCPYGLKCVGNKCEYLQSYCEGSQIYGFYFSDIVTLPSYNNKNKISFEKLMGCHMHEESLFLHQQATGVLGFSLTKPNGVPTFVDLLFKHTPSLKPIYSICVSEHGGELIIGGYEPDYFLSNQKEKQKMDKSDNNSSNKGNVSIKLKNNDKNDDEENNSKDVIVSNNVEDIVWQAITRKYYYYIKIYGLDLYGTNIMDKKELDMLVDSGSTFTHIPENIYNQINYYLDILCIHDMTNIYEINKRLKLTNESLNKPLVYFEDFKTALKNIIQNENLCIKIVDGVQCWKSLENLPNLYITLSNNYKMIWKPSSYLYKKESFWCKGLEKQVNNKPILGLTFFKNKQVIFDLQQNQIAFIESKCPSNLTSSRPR

B1: WEHI-842, Cbz-Cav(NH2)-Val-Sta-NH(CH2)2Ph.TFA (peptide)
peptide: Cbz-X-Val-[Sta]-NHPhenethyl
modifications: not fully specified (residue 1); printed as Cbz-Cav(NH2)-Val-Sta-NH(CH2)2Ph; also: TFA salt
- IC50, inhibition of cleavage of the fluorogenic KAHRP PEXEL peptide [1]: 0.79 nM
- inhibition of PEXEL processing of PfEMP3-GFP in parasites, immunoblot, fold against WEHI-916 [2]: 10 fold
- inhibition of PfEMP3-GFP PEXEL cleavage in parasites, radiolabelling and densitometry, fold against WEHI-916 [2]: 10 fold
